{"source": "paper PMC13544220", "about": "“Glycemic and bodyweight effects of GIPR coding variation reflect differences in surface expression and intrinsic functional impairment” (Science Advances, 2026)", "molecules": {"B1": {"name": "I378M (protein, UniProt P48546 22-466, looked up, variant I378M)", "Gastric inhibitory …": "RAETGSKGQTAGELYQRWERYRRECQETLAAAEPPSGLACNGSFDMYVCWDYAAPNATARASCPWYLPWHHHVAAGFVLRQCGSDGQWGLWRDHTQCENPEKNEAFLDQRLILERLQVMYTVGYSLSLATLLLALLILSLFRRLHCTRNYIHINLFTSFMLRAAAILSRDRLLPRPGPYLGDQALALWNQALAACRTAQIVTQYCVGANYTWLLVEGVYLHSLLVLVGGSEEGHFRYYLLLGWGAPALFVIPWVIVRYLYENTQCWERNEVKAIWWIIRTPILMTILINFLIFIRILGILLSKLRTRQMRCRDYRLRLARSTLTLVPLLGVHEVVFAPVTEEQARGALRFAKLGFEMFLSSFQGFLVSVLYCFINKEVQSEIRRGWHHCRLRRSLGEEQRQLPERAFRALPSGSGPGEVPTSRGLSSGTLPGPGNEASRELESYC"}}, "assay_type_in_all_cases": "cell-based, human", "key": {"[1]": {"test_system": "wild-type and variant SNAP-GIPR", "test": "Surface SNAP-GIPR expression (SNAP-tag labelling) in AD293 cells;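 for all read-outs here: scaled to the experimental average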", "settings": "for AD293 Surface: Fig S3E, mean; for Surface SNAP-GIPR expression: sheet Fig 1C", "experimental": "(§1) Twenty-four hours before the experiment, AD293 or INS-1 cells were reverse transfected with GIPR variant or wild-type plasmids using Lipofectamine 2000 in 96-well, clear-bottom, black microplates precoated with poly-D-lysine. All variants were tested in parallel on each occasion to control for transfection efficiency differences between experiments. Cells were then labeled using the cell-impermeant probe SNAP-Surface Alexa Fluor 647 (500 nM, New England Biolabs, USA) for 10 min at room temperature to label only surface GIPR. […] Several fields of view (FOVs) were acquired within each well using a 20X, 0.75–numerical aperture (NA) air objective. Surface GIPR fluorescence was quantified after flat-field correction using BaSiC ([72]) and segmenting using Phantast ([73]), which generates a mask based on the phase contrast images to demarcate cell versus noncell. Wide-field imaging of the surface-specific labeling achieved by SNAP-Surface probes means that surface expression can be established from whole-cell fluorescence, after subtracting nonspecific fluorescence from a separate well containing nontransfected cells processed in parallel from the same experiment. Data were normalized by dividing by the average specific signal across each experiment, or by the wild-type value, as indicated in the figure legends."}, "[2]": {"test_system": "wild-type and variant SNAP-GIPR", "test": "Surface SNAP-GIPR expression (SNAP-tag labelling) in INS-1 cells", "settings": "Fig 4G; Mean", "experimental": "as §1"}, "[3]": {"test_system": "wild-type and variant SNAP-GIPR", "test": "Single-concentration GIP cAMP response by HTRF in AD293 cells", "settings": "Fig S3F, HTRF, mean", "experimental": "(§2) All variants were tested in parallel on each occasion to control for transfection efficiency differences between experiments."}, "[4]": {"test_system": "wild-type and variant SNAP-GIPR", "test": "Single-concentration GIP cAMP response by HTRF in INS-1 cells", "settings": "Fig S3E, mean", "experimental": "as §2"}, "[5]": {"test_system": "wild-type and variant SNAP-GIPR", "test": "cADDis cAMP imaging in AD293 cells, ensemble, expression-matched and per decile", "settings": "Fig S3F, cADDis, mean", "experimental": "AD293 cells were reverse transfected with the GIPR variant or wild-type plasmids using Lipofectamine 2000 and cotransduced with the cADDis Green Up BacMam (10 μl per well, Montana Molecular, USA), in 96-well, poly-D-lysine–coated microplates. All variants were tested in parallel on each occasion to control for transfection efficiency differences between experiments. After 24 hours, cells were labeled using 500 nM SNAP-Surface Alexa Fluor 647 for 10 min at room temperature. Cells were washed three times and then imaged in KRBH buffer containing 6 mM glucose and 0.1% BSA. Imaging was performed at 37°C by wide-field microscopy using the same microscope as in the “Assessment of surface GIPR expression by SNAP-tag labeling in cell lines” section, with 9 FOVs for both cADDis and SNAP-Surface fluorescence acquired from each well using a 10X, 0.45 NA air objective. […] Flat-field correction was performed using BaSiC ([72]), drift correction was performed using SIFT, and a maximum intensity projection of the cADDis channel was used to segment individual cells. cAMP responses were determined by quantifying the cADDis fluorescence intensity for each cell at each time point. Nonviable cells or noncell objects were excluded according to criteria for allowable cell IBMX/FSK responses. […] The cADDis mask was then used to quantify the SNAP-Surface signal from each cell. Wild-type SNAP-Surface readings were split into deciles, and these deciles were subsequently used to categorize variant-transfected cells to match against the wild type. After trimming the top and bottom deciles, the mean was taken of each decile mean for surface expression level or cAMP response, which achieved matched expression levels by effectively applying an inverse weighting to counteract differences in cell number in each decile for different variants. Ensemble expression levels or cAMP responses were calculated without regard to deciles. Variant cADDis responses were also analyzed within their own surface expression deciles."}, "[6]": {"test_system": "wild-type and variant SNAP-GIPR", "test": "Constitutive and agonist-mediated internalization, reversible SNAP-tag labelling, AD293 cells", "design": "key to Internalisation, Vehicle / Internalisation, +GIP / Internalisation, GIP-only: % internalization: residual fluorescence after Mesna vs pre-Mesna; Surface expression: unit not given here", "settings": "Mean", "experimental": "(§3) Twenty-four hours before the experiment, AD293 or INS-1 cells were reverse transfected with GIPR variant or wild-type plasmids using Lipofectamine 2000 in 96-well, clear-bottom, black microplates precoated with poly-D-lysine. All variants were tested in parallel on each occasion to control for transfection efficiency differences between experiments. […] Media were then removed, cells washed with PBS and then placed in TNE buffer (pH 8.6) for imaging. […] After 10 min, the well was reimaged again to detect remaining fluorescence from internalized GIPR. Images were analyzed as in the “Assessment of surface GIPR expression by SNAP-tag labeling in cell lines” section, with the residual specific fluorescence after Mesna treatment expressed relative to the pre-Mesna value to establish percentage internalization."}, "[7]": {"test_system": "wild-type and variant SNAP-GIPR", "test": "Constitutive and agonist-mediated internalization, reversible SNAP-tag labelling, INS-1 cells", "design": "key to Internalisation, GIP-only / Internalisation, Vehicle / Internalisation, +GIP: % internalization: residual fluorescence after Mesna vs pre-Mesna", "settings": "Mean", "experimental": "as §3"}}, "data": [{"molecule": "B1", "values": [{"measurement": "AD293 Surface", "setting": "[1]; column repeated, paired with cAMP 100 nM", "result": 1.77}, {"measurement": "AD293 Surface", "setting": "[1]; paired with cAMP 100 pM", "result": 1.77}, {"measurement": "Surface SNAP-GIPR expression", "setting": "[1]; replicate 1", "result": 1.773}, {"measurement": "Surface SNAP-GIPR expression", "setting": "[1]; replicate 2", "result": 1.115}, {"measurement": "Surface SNAP-GIPR expression", "setting": "[1]; replicate 3", "result": 0.7558}, {"measurement": "Surface SNAP-GIPR expression", "setting": "[1]; replicate 4", "result": 2.264}, {"measurement": "Surface SNAP-GIPR expression", "setting": "[1]; replicate 5", "result": 2.029}, {"measurement": "Surface SNAP-GIPR expression", "setting": "[1]; replicate 6", "result": 1.522}, {"measurement": "Surface SNAP-GIPR expression", "setting": "[1]; replicate 7", "result": 1.263}, {"measurement": "Surface SNAP-GIPR expression", "setting": "[1]; replicate 8", "result": 1.045}, {"measurement": "Surface SNAP-GIPR expression", "setting": "[1]; replicate 9", "result": 1.7}, {"measurement": "Surface SNAP-GIPR expression", "setting": "[1]; replicate 10", "result": 1.857}, {"measurement": "Surface SNAP-GIPR expression", "setting": "[1]; replicate 11", "result": 1.523}, {"measurement": "Surface SNAP-GIPR expression", "setting": "[1]; replicate 12", "result": 1.59}, {"measurement": "Surface SNAP-GIPR expression", "setting": "[1]; replicate 13", "result": 1.942}, {"measurement": "Surface SNAP-GIPR expression", "setting": "[1]; replicate 14", "result": 2.071}, {"measurement": "Surface SNAP-GIPR expression", "setting": "[1]; replicate 15", "result": 1.739}, {"measurement": "Surface SNAP-GIPR expression", "setting": "[1]; replicate 16", "result": 1.656}, {"measurement": "Surface SNAP-GIPR expression", "setting": "[1]; replicate 17", "result": 1.757}, {"measurement": "Surface SNAP-GIPR expression", "setting": "[1]; replicate 18", "result": 2.038}, {"measurement": "Surface SNAP-GIPR expression", "setting": "[1]; replicate 19", "result": 1.806}, {"measurement": "Surface SNAP-GIPR expression", "setting": "[1]; replicate 20", "result": 1.652}, {"measurement": "Surface SNAP-GIPR expression", "setting": "[1]; replicate 21", "result": 1.678}, {"measurement": "Surface SNAP-GIPR expression", "setting": "[1]; replicate 22", "result": 1.86}, {"measurement": "Surface SNAP-GIPR expression", "setting": "[1]; replicate 23", "result": 1.91}, {"measurement": "Surface SNAP-GIPR expression", "setting": "[1]; replicate 24", "result": 1.99}, {"measurement": "Surface SNAP-GIPR expression", "setting": "[1]; replicate 25", "result": 1.721}, {"measurement": "Surface SNAP-GIPR expression", "setting": "[1]; replicate 26", "result": 1.677}, {"measurement": "Surface SNAP-GIPR expression", "setting": "[1]; replicate 27", "result": 2.102}, {"measurement": "Surface SNAP-GIPR expression", "setting": "[1]; replicate 28", "result": 2.164}, {"measurement": "Surface SNAP-GIPR expression", "setting": "[1]; replicate 29", "result": 2.007}, {"measurement": "Surface SNAP-GIPR expression", "setting": "[1]; replicate 30", "result": 1.865}, {"measurement": "Surface SNAP-GIPR expression", "setting": "[1]; replicate 31", "result": 1.878}, {"measurement": "Surface SNAP-GIPR expression", "setting": "[1]; replicate 32", "result": 1.784}, {"measurement": "Surface SNAP-GIPR expression", "setting": "[1]; replicate 33", "result": 1.822}, {"measurement": "Surface SNAP-GIPR expression", "setting": "[1]; replicate 34", "result": 1.937}, {"measurement": "Surface SNAP-GIPR expression", "setting": "[1]; replicate 35", "result": 1.581}, {"measurement": "Surface SNAP-GIPR expression", "setting": "[1]; replicate 36", "result": 1.504}, {"measurement": "Surface SNAP-GIPR expression", "setting": "[1]; replicate 37", "result": 2.229}, {"measurement": "Surface SNAP-GIPR expression", "setting": "[1]; replicate 38", "result": 1.734}, {"measurement": "Surface SNAP-GIPR expression", "setting": "[1]; replicate 39", "result": 2.181}, {"measurement": "Surface SNAP-GIPR expression", "setting": "[1]; replicate 40", "result": 1.889}, {"measurement": "Surface SNAP-GIPR expression", "setting": "[1]; replicate 41", "result": 1.94}, {"measurement": "Surface expression", "setting": "[2]", "result": 1.534}, {"measurement": "AD293 100 pM HTRF", "setting": "[3]; AD293, 100 pM", "result": 1.235}, {"measurement": "AD293 100 nM HTRF", "setting": "[3]; AD293, 100 nM", "result": 1.479}, {"measurement": "INS-1 cAMP (100 nM)", "setting": "[4]", "result": 1.242}, {"measurement": "AD293 100 pM cADDis", "setting": "[5]; AD293, 100 pM", "result": 37.0191}, {"measurement": "AD293 100 nM cADDis", "setting": "[5]; AD293, 100 nM", "result": 39.23}, {"measurement": "+GIP internalisation (100 nM)", "setting": "[6]; Fig 4E, GIP 100 nM", "result": 1.013}, {"measurement": "GIP-specific internalisation (100 nM)", "setting": "[6]; Fig 4E, GIP 100 nM", "result": 0.2773}, {"measurement": "Constitutive internalisation (100 nM)", "setting": "[6]; Fig 4E", "result": 0.7358}, {"measurement": "Surface expression", "setting": "[6]; Fig 4E", "result": 1.854}, {"measurement": "Internalisation, +GIP", "setting": "[6]; Fig S4C, AD293", "result": 54.7212}, {"measurement": "Internalisation, GIP-only", "setting": "[6]; Fig S4C, AD293", "result": 14.9417}, {"measurement": "Internalisation, Vehicle", "setting": "[6]; Fig S4C, AD293", "result": 39.7795}, {"measurement": "+GIP internalisation (100 nM)", "setting": "[7]; Fig 4G, GIP 100 nM", "result": 0.6937}, {"measurement": "GIP-specific internalisation (100 nM)", "setting": "[7]; Fig 4G, GIP 100 nM", "result": 0.1611}, {"measurement": "Constitutive internalisation (100 nM)", "setting": "[7]; Fig 4G", "result": 0.5325}, {"measurement": "Internalisation, +GIP", "setting": "[7]; Fig S4C, INS-1", "result": 45.8367}, {"measurement": "Internalisation, GIP-only", "setting": "[7]; Fig S4C, INS-1", "result": 10.74}, {"measurement": "Internalisation, Vehicle", "setting": "[7]; Fig S4C, INS-1", "result": 35.0967}]}]}
